{"source": "patent US20190142971A1", "about": "“FORMULATION AND DELIVERY OF MODIFIED NUCLEOSIDE, NUCLEOTIDE, AND NUCLEIC ACID COMPOSITIONS” (ModernaTX, Inc., priority 2013, published 2019)", "format_in_all_cases": "in vivo", "key": {"[1]": {"tested_on": "non-human primates (cynomolgus monkey)", "assay": "Example 22: LNP IV in non-human primates, serum G-CSF/EPO ELISA (Tables 38, 39)", "experimental": "LNP formulations, shown in Table 33 (above), were administered to non-human primates (NHP) (cynomolgus monkey) (n=2) as intravenous injection (IV). The NHP were administered a single modified mRNA IV dose of 0.5 mg/kg, 0.05 mg/kg or 0.005 mg/kg of G-CSF or EPO in a dose volume of 0.5 mL/kg. The NHPs were bled before dosing with the modified mRNA LNP formulations to determine protein expression in the serum and a baseline complete blood count. After administration with the G-CSF modified mRNA formulation the NHP were bled at 8, 24, 48 and 72 hours to determined protein expression. After administration with the EPO modified mRNA formulation the NHP were bled at 8, 24, 48, 72 hours and 7 days to determined protein expression.\nSamples collected from the NHPs after they were administered with G-CSF or EPO modified mRNA formulations were analyzed by ELISA to determine protein expression. Neutrophil and reticulocyte count was also determined pre-dose, 24 hours, 3 days, 7 days, 14 days and 18 days after administration of the modified G-CSF or EPO formulation."}, "C57/BL6 mice": {"tested_on": "C57/BL6 mice", "assay": "Example 34: EPO mRNA in buffer IM or SC in mice, serum EPO (Table 60)", "conditions": "13 hours post injection", "experimental": "Mice were intramuscularly or subcutaneously injected with 50 μl of the modified human EPO mRNA (h-EPO), modified luciferase mRNA (Luc) or the formulation buffer (F.Buffer) as described in the dosing chart Table 60. 13 hours post injection blood was collected and serum was analyzed to determine the amount human EPO for each mouse or rat."}, "Sprague-Dawley rats": {"tested_on": "Sprague-Dawley rats", "assay": "Example 35: duration after IM EPO mRNA in rats, serum EPO (Table 61)", "conditions": "rats IM 100 μg", "experimental": "The rats were bled 2, 6, 12, 24, 48 and 72 hours after the intramuscular injection to determine the concentration of human EPO in serum at a given time."}, "mice": {"tested_on": "mice", "assay": "Example 42B: EPO mRNA dose response IM in mice (Table 68)", "experimental": "The mice were bled at 13 hours after the injection to determine the concentration of the human polypeptide in serum in pg/mL."}}}
{"molecule": "EPO: modified mRNA encoding human erythropoietin, SEQ ID NO: 7, Cap1, fully modified with 5-methylcytosine and pseudouridine; LNP NPA-060-1 in Examples 17-22 (nucleic acid, Cap1, 5-methylcytosine, pseudouridine) GGGAAAUAAGAGAGAAAAGAAGAGUAAGAAGAAAUAUAAGAGCCACCAUGGGAGUGCACGAGUGUCCCGCGUGGUUGUGGUUGCUGCUGUCGCUCUUGAGCCUCCCACUGGGACUGCCUGUGCUGGGGGCACCACCCAGAUUGAUCUGCGACUCACGGGUACUUGAGAGGUACCUUCUUGAAGCCAAAGAAGCCGAAAACAUCACAACCGGAUGCGCCGAGCACUGCUCCCUCAAUGAGAACAUUACUGUACCGGAUACAAAGGUCAAUUUCUAUGCAUGGAAGAGAAUGGAAGUAGGACAGCAGGCCGUCGAAGUGUGGCAGGGGCUCGCGCUUUUGUCGGAGGCGGUGUUGCGGGGUCAGGCCCUCCUCGUCAACUCAUCACAGCCGUGGGAGCCCCUCCAACUUCAUGUCGAUAAAGCGGUGUCGGGGCUCCGCAGCUUGACGACGUUGCUUCGGGCUCUGGGCGCACAAAAGGAGGCUAUUUCGCCGCCUGACGCGGCCUCCGCGGCACCCCUCCGAACGAUCACCGCGGACACGUUUAGGAAGCUUUUUAGAGUGUACAGCAAUUUCCUCCGCGGAAAGCUGAAAUUGUAUACUGGUGAAGCGUGUAGGACAGGGGAUCGCUGAUAAGCUGCCUUCUGCGGGGCUUGCCUUCUGGCCAUGCCCUUCUUCUCUCCCUUGCACCUGUACCUCUUGGUCUUUGAAUAAAGCCUGAGUAGGAAG", "values": [{"measurement": "Male NHP Serum G-CSF / EPO Concentration", "setting": "[1]; 0.005 mg/kg IV, 7 days", "result": "<7.8", "unit": "pg/mL"}, {"measurement": "Female NHP Serum G-CSF / EPO Concentration", "setting": "[1]; 0.005 mg/kg IV, Pre-bleed", "result": "<7.8", "unit": "pg/mL"}, {"measurement": "Male NHP Serum G-CSF / EPO Concentration", "setting": "[1]; 0.005 mg/kg IV, Pre-bleed", "result": "<7.8", "unit": "pg/mL"}, {"measurement": "Female NHP Serum G-CSF / EPO Concentration", "setting": "[1]; 0.05 mg/kg IV, 8 hours", "result": "19,858 pg/ml"}, {"measurement": "Male NHP Serum G-CSF / EPO Concentration", "setting": "[1]; 0.05 mg/kg IV, 8 hours", "result": "7,072 pg/ml"}, {"measurement": "Female NHP Serum G-CSF / EPO Concentration", "setting": "[1]; 0.05 mg/kg IV, 24 hours", "result": "18,187 pg/ml"}, {"measurement": "Male NHP Serum G-CSF / EPO Concentration", "setting": "[1]; 0.05 mg/kg IV, 24 hours", "result": "4,913 pg/ml"}, {"measurement": "Female NHP Serum G-CSF / EPO Concentration", "setting": "[1]; 0.05 mg/kg IV, 48 hours", "result": "5,291 pg/ml"}, {"measurement": "Male NHP Serum G-CSF / EPO Concentration", "setting": "[1]; 0.05 mg/kg IV, 48 hours", "result": 498, "unit": "pg/mL"}, {"measurement": "Female NHP Serum G-CSF / EPO Concentration", "setting": "[1]; 0.05 mg/kg IV, 72 hours", "result": 744, "unit": "pg/mL"}, {"measurement": "Male NHP Serum G-CSF / EPO Concentration", "setting": "[1]; 0.05 mg/kg IV, 72 hours", "result": 60, "unit": "pg/mL"}, {"measurement": "Female NHP Serum G-CSF / EPO Concentration", "setting": "[1]; 0.05 mg/kg IV, 7 days", "result": "<7.8", "unit": "pg/mL"}, {"measurement": "Male NHP Serum G-CSF / EPO Concentration", "setting": "[1]; 0.05 mg/kg IV, 7 days", "result": "<7.8", "unit": "pg/mL"}, {"measurement": "Female NHP Serum G-CSF / EPO Concentration", "setting": "[1]; 0.05 mg/kg IV, Pre-bleed", "result": "<7.8", "unit": "pg/mL"}, {"measurement": "Male NHP Serum G-CSF / EPO Concentration", "setting": "[1]; 0.05 mg/kg IV, Pre-bleed", "result": "<7.8", "unit": "pg/mL"}, {"measurement": "Female NHP Serum G-CSF / EPO Concentration", "setting": "[1]; 0.5 mg/kg IV, 8 hours", "result": "158,771 pg/ml"}, {"measurement": "Male NHP Serum G-CSF / EPO Concentration", "setting": "[1]; 0.5 mg/kg IV, 8 hours", "result": "119,086 pg/ml"}, {"measurement": "Female NHP Serum G-CSF / EPO Concentration", "setting": "[1]; 0.5 mg/kg IV, 24 hours", "result": "133,978 pg/ml"}, {"measurement": "Male NHP Serum G-CSF / EPO Concentration", "setting": "[1]; 0.5 mg/kg IV, 24 hours", "result": "85,825 pg/ml"}, {"measurement": "Female NHP Serum G-CSF / EPO Concentration", "setting": "[1]; 0.5 mg/kg IV, 48 hours", "result": "45,250 pg/ml"}, {"measurement": "Male NHP Serum G-CSF / EPO Concentration", "setting": "[1]; 0.5 mg/kg IV, 48 hours", "result": "64,793 pg/ml"}, {"measurement": "Female NHP Serum G-CSF / EPO Concentration", "setting": "[1]; 0.5 mg/kg IV, 72 hours", "result": "15,097 pg/ml"}, {"measurement": "Male NHP Serum G-CSF / EPO Concentration", "setting": "[1]; 0.5 mg/kg IV, 72 hours", "result": "20,407 pg/ml"}, {"measurement": "Female NHP Serum G-CSF / EPO Concentration", "setting": "[1]; 0.5 mg/kg IV, 7 days", "result": "<7.8", "unit": "pg/mL"}, {"measurement": "Male NHP Serum G-CSF / EPO Concentration", "setting": "[1]; 0.5 mg/kg IV, 7 days", "result": "<7.8", "unit": "pg/mL"}, {"measurement": "Female NHP Serum G-CSF / EPO Concentration", "setting": "[1]; 0.5 mg/kg IV, Pre-bleed", "result": "<7.8", "unit": "pg/mL"}, {"measurement": "Male NHP Serum G-CSF / EPO Concentration", "setting": "[1]; 0.5 mg/kg IV, Pre-bleed", "result": "<7.8", "unit": "pg/mL"}, {"measurement": "protein expression not detected beyond", "setting": "[1]; NHP IV", "result": "≤ 7", "unit": "days"}, {"measurement": "Average Level in serum (human EPO)", "setting": "C57/BL6 mice; mice IM, dose 1 μg", "result": 2.6, "unit": "pg/mL"}, {"measurement": "Average Level in serum (human EPO)", "setting": "C57/BL6 mice; mice IM, dose 10 μg", "result": 25.9, "unit": "pg/mL"}, {"measurement": "Average Level in serum (human EPO)", "setting": "C57/BL6 mice; mice IM, dose 25 μg", "result": 18.7, "unit": "pg/mL"}, {"measurement": "Average Level in serum (human EPO)", "setting": "C57/BL6 mice; mice IM, dose 50 μg", "result": 63.5, "unit": "pg/mL"}, {"measurement": "Average Level in serum (human EPO)", "setting": "C57/BL6 mice; mice IM, dose 100 μg", "result": 96.2, "unit": "pg/mL"}, {"measurement": "Average Level in serum (human EPO)", "setting": "C57/BL6 mice; mice SC, dose 100 μg", "result": 72.0, "unit": "pg/mL"}, {"measurement": "human EPO in serum, Avg.", "setting": "Sprague-Dawley rats; 2 hour", "result": 59.6, "unit": "pg/mL"}, {"measurement": "human EPO in serum, Geometric-mean", "setting": "Sprague-Dawley rats; 2 hour", "result": 58.2, "unit": "pg/mL"}, {"measurement": "human EPO in serum, Avg.", "setting": "Sprague-Dawley rats; 6 hour", "result": 68.6, "unit": "pg/mL"}, {"measurement": "human EPO in serum, Geometric-mean", "setting": "Sprague-Dawley rats; 6 hour", "result": 55.8, "unit": "pg/mL"}, {"measurement": "human EPO in serum, Avg.", "setting": "Sprague-Dawley rats; 12 hour", "result": 87.4, "unit": "pg/mL"}, {"measurement": "human EPO in serum, Geometric-mean", "setting": "Sprague-Dawley rats; 12 hour", "result": 84.5, "unit": "pg/mL"}, {"measurement": "human EPO in serum, Avg.", "setting": "Sprague-Dawley rats; 24 hour", "result": 108.6, "unit": "pg/mL"}, {"measurement": "human EPO in serum, Geometric-mean", "setting": "Sprague-Dawley rats; 24 hour", "result": 95.3, "unit": "pg/mL"}, {"measurement": "human EPO in serum, Avg.", "setting": "Sprague-Dawley rats; 48 hour", "result": 77.9, "unit": "pg/mL"}, {"measurement": "human EPO in serum, Geometric-mean", "setting": "Sprague-Dawley rats; 48 hour", "result": 77.0, "unit": "pg/mL"}, {"measurement": "human EPO in serum, Avg.", "setting": "Sprague-Dawley rats; 72 hour", "result": 80.1, "unit": "pg/mL"}, {"measurement": "human EPO in serum, Geometric-mean", "setting": "Sprague-Dawley rats; 72 hour", "result": 75.8, "unit": "pg/mL"}, {"measurement": "Average Protein Product, serum", "setting": "mice; Dose Vol. (μl/mouse) 1, 13 hours", "result": 2.6, "unit": "pg/mL"}, {"measurement": "Average Protein Product, serum", "setting": "mice; Dose Vol. (μl/mouse) 10, 13 hours", "result": 25.9, "unit": "pg/mL"}, {"measurement": "Average Protein Product, serum", "setting": "mice; Dose Vol. (μl/mouse) 25, 13 hours", "result": 18.7, "unit": "pg/mL"}, {"measurement": "Average Protein Product, serum", "setting": "mice; Dose Vol. (μl/mouse) 50, 13 hours", "result": 63.5, "unit": "pg/mL"}, {"measurement": "Average Protein Product, serum", "setting": "mice; Dose Vol. (μl/mouse) 100, 13 hours", "result": 96.2, "unit": "pg/mL"}]}
